# Assay: yeast display, Sf9 membrane polyspecificity reagent, FACS + sequencing; frameworks hold sequencing errors
# In short: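 A nanobody's polyreactivity label depends on the gate it was sorted from. Yeast display cells were stained with 10% biotinylated, detergent-solubilized Sf9 membrane reagent for 1 hour at 4 °C, enriched on streptavidin microbeads and sorted by FACS. The low and high (top ~1%) gates were set on anti-HA fluorescence for expression and streptavidin fluorescence for reagent binding.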
row,Sequence,polyreactivity (PSR sort gate)
1,QVQLVESGGGLVQAGGSLRFSCAASGRTITRYAMGWYRQAPGKERELVAAISKRGTRTYYADSVKGRFTISRDHAKNTVYLQMNSLKPADTAVYYCNGAGRWALYYHLYTGFDYWGQGTQVTVSS,high polyreactivity
2,QVQLVESGGGLVQAGGSLRFSCAASGRTSRYYAMRWYRQAPGKERELVAGISTGGSTYYADSVKGRFTISRDNAKNTVYLQMKSLKPEDTAVYYCAAKYTRTNYYYWYYRMDFWGQGTQVTVSS,low polyreactivity
3,QVQLVESGGGLVQAGGSLRFSCAASGSIFDYYAMGWYRQAPGKERELVASITWSGGRTSYADSVKGRFTISRDNAKNTVYLQMNSLKPEDTAVYYCAAKLWSYAYQHKRVWYYYWGQGTQVTVSS,high polyreactivity
4,QVQLVESGGGLVQAGGSLRFSCAASGSIFFNNAMGWYRQAPGKERELVAAITTGGSTYYADSVKGRFTISRDNAKNTVYLQMNSLKPEDTAVYYCAAVVVYPYRLGYDYWGQGTQVTVSS,low polyreactivity
5,QVQLVESGGGLVQAGGSLRFSCAASGSIFSWYAMGGYRQAPGKERELVAAITWTGGSTYYADSVKGRFTISRDNAKNTVYLQMNSLKPEETAVYYCAARRVVYRKYGDRARWYNYWGHGTQVTVSS,high polyreactivity
6,QVQLVESGGGLVQAGGSLRFSCAASGSILYYNAKGWYIQAPGKEREFVAAISDSGSSTYYADSVKGRFTISRDTAKNTVYLQMNSLKPEDTADYYCNAYQGDKYDSWGQGSQVTVSS,low polyreactivity
7,QVQLVESGGGLVQAGGSLRFSCAASGSTFIGYAMGWYRQAPGKERELVAGISRGGRTNYADSVKGRFTISRDNAKHTVYLQMNSLKPEDTAVYYCAAGYRRYYEGFWVIQMNYWGQGTQVTVSS,high polyreactivity
8,QVQLVESGGGLVQAGGSLRFSCAASGSTFKAYAMGWYRQAPGKERDLVARITYSGDITYYADSVKGRFTISRDNAKNTVYVQMNSLKRDDTAVFYCNDGFFVLEYDYWGQGTQLTVSS,low polyreactivity
9,QVQLVESGGGLVQAGGSLRFSCAASGSTFRYNAMGWYRQAPGKERELVAVISWGGGRTYYADSVKGRFTISRDNAKNTVYLKMNSLKPEDTAVYYCNVYFGRIVARDYGYWGQGTQVTVSS,high polyreactivity
10,QVQLVESGGGLVQAGGSLRFSCAASGSTFSYYDMGWYRQAPGKEREMVAAISWNGGTTFYADSVKGRFTISRDNAMNTVYLQMKSLKPEDTAVYYCAVTGFEVLWPSLGGELDYWGQGTQVTVSS,low polyreactivity
11,QVQLVESGGGLVQAGGSLRFSCAASGSTFYSYAMGWYRQAPGKERELVAGITGNDGSTYYADSVKGRFTISRDNAKNTVYLQMNSLKPEDTAVYYCNTDASPYLFDYWGQGTQVTVSS,low polyreactivity
12,QVQLVESGGGLVQAGGSLRFSCAASGTFYYYAMGWYRHAPGKERELVAAISYSGGRTYYADSVKGRFTISRDNAKNTVYLQMNSLKPEDTAVYYCNALYRKTPSYGADDYWGQGTQVTVSS,high polyreactivity
13,QVQLVESGGGLVQAGGSLRFSCAGSGSTFRNYAMGWYRQAPGQERAFVATISSAGGTTYYADSVKGRFTISRDKAKNTLYVQMNSLNPEDTAVYYCAADQHSYRYGGYYYWGQGTQVTVSS,low polyreactivity
14,QVQLVESGGGLVQAGGSLRFSCSASGSIFNYYTMGWYRQAPGKERELVAVITSGGSTYYADSVKGRFTISRDNAKNTVYLQMNSLKPEDTAVYYCAAKRRSYLKQGYSVGYWGQGSQVTVSS,high polyreactivity
15,QVQLVESGGGLVQAGGSLRFSCSAYGSILPGYAMGWYRQAPGKERELVDAISYRGTSTYYADSVKGRFTISRDNAKNTVYLQMNSLKPEDTAVYYCAAGGSWFSYPPRMDYWGQGTQVTVSS,high polyreactivity
16,QVQLVESGGGLVQAGGSLRFTFGATGIIFYRNTMGWYSLAPGKHRELVASLSRGGSTNYADSVKGRFTISRDNAKTTVYLQMNRLKPEDTAVDYCAAYTDIPLSYYRGYTMDYWGQGTQVTVSS,low polyreactivity
17,QVQLVESGGGLVQAGGSLRICCADSGLTFRFYSSGWYRQAPGKEMELVAAISRSGGSTYYADSVKGRFTISRDNAKNTVYLQMNSLKPEDSAVYYCAAGRRGGKHGGTRGGDYWGQGTQVTVSS,high polyreactivity
18,QVQLVESGGGLVQAGGSLRIICAASGRIFSKYARGWYRQAPGKERELVAAISSRGGNTYYADSVKGRFTISRDNAKNTVYLQMTSLKPEDTAVYFCAAGYYYTGYEYDYWGQGTQVTVSS,high polyreactivity
19,QVQLVESGGGLVQAGGSLRIICAASGRIFTFYAMGWYRQATGKARELVASIRSSTYYADSVKGRFTISRDNAKYTVYLQMNSLKPEDTALYYCNVRLSYSYISPSDWNFDYWGQGTQVTVSS,low polyreactivity
20,QVQLVESGGGLVQAGGSLRIICAASGSTFTWNDMRWYRQAPGKERELVAGISLSAGSTYYADSVKGRFTISRDNAKNTDYLQMKSLKPEHTAVYYCNADPGGPDTYEEHDYWGQGTQVTVSS,low polyreactivity
21,QVQLVESGGGLVQAGGSLRIISAASGSTFTRYTMGWYRQAPGKEMEFVAAISFSGGSTYYADSVKGRFTIARDNAKNTVYLEMNSLKPEDTAVYYCAASAHCYRPARDYWGQGTQVTVSS,low polyreactivity
22,QVQLVESGGGLVQAGGSLRIRCAASGRIFRTNAMGWYRQAPGKERELVAAISDSGADTSYADSVKGRFSISRDNAKNTDYLQMNSLKPEDTAVDYCNRGRVYYRYLKDYDYWGQGTQVTVSS,low polyreactivity

row,Sequence,polyreactivity (PSR sort gate)
1,QVQLVESGGGLVQAGGSLRIRCAASGSTFKTYTMGWYRQAPGKERELVAGITSGGSTSYADSVKGRFTISRDNAKNTVYLQMNSLKPEVTAVYYCAAAEGGGLVTYDYCGQGTQVTVSS,low polyreactivity
2,QVQLVESGGGLVQAGGSLRISCAASAHIFDYNAMGWYRQAPGKERELVAAITSGGTTTYADSVKGRFTISRDNAKNTVDLQMNSLKPEDTAVYYCNTYGQTDTYWRYYYWGQGTQVTVSS,high polyreactivity
3,QVQLVESGGGLVQAGGSLRISCAASGFIFPFYAMGWYRQAPVKERELVATITSGGSTNYADSVKGRFTISRDNAKNTVYLQMNSQKPEDTAVYYCAAVIVPYGPSTFRVVGLDYWGQGTQVTVSS,low polyreactivity
4,QVQLVESGGGLVQAGGSLRISCAASGFIFRQYAMGWYRQAPGKERELVAAISRSGGSTYYADSVKGRFTISRDNAKNTVYLQMNSLKPEDTAVYYCNAVPRKYTDEFDYWGQGTQVTVSS,high polyreactivity
5,QVQLVESGGGLVQAGGSLRISCAASGFSFVWYAMGWYRQAPGKERELVAAINWSGGHTYYADSVKGRFTISRDNAKNTVYLQMNSQKPVETAVYYCNADSLWYWFYPYNYWGQGTQVTVSS,low polyreactivity
6,QVQLVESGGGLVQAGGSLRISCAASGFTFHSYAMGWYIQAPGKERELVDAISYSGGSTYYADSVKGRFTISRDNAKNTVYLQMNSLKPEDSAVYYCAVLRYIYGYANDYWGQGTQLTVSS,low polyreactivity
7,QVQLVESGGGLVQAGGSLRISCAASGFTFRANAMGWYRQAPGKEREVVAAISQSGGRTYYADSVKARFTISRDNAKNTVYLQMNSLKPEDTAVYDCAAPDSAKELYYRMDYWGQGTQVTVSS,high polyreactivity
8,QVQLVESGGGLVQAGGSLRISCAASGFTFSSYAMGRSRPAPGKERELVAGITIDGNTYYADSVKGRFTISRDNAKNTVYLQMNSLKPEDTAVYYCAAVAYYYGYDYWGQGTQVTVSS,low polyreactivity
9,QVQLVESGGGLVQAGGSLRISCAASGFTFSYNTMGWYRQAPGKERELVAAITGDVSTNYADSVKGRFTISRDNAKNTVYLQMNSLKPEDTAVYYCAARPNFPGYEDLSVDFEYWGQGTQGTVSS,low polyreactivity
10,QVQLVESGGGLVQAGGSLRISCAASGFTFVINEMGWYRPAPGKERELVADITSGGDTYYADSVKGRFTISRDNAKNTVYLQMNSLKPEDTAVYYCAAYIYPDWIYLLYGYWGQGTQVTVSS,low polyreactivity
11,QVQLVESGGGLVQAGGSLRISCAASGFTFYTNAMGWYIQAPGKERELVAAISSGGSTNYADSVKGRFTISRDNAKNTVYLQMNSLQPEDSAVYYCAARRGYWGQGTQVTVSS,high polyreactivity
12,QVQLVESGGGLVQAGGSLRISCAASGGIFWTYAMGWYRQEPGKERELVAAISYSDGITYYADSVKGRFTISRDNAKNTVYFQMNSLKPEDTAVYYCAADPELAVPMYYWGQGTQVTVSS,low polyreactivity
13,QVQLVESGGGLVQAGGSLRISCAASGINFVTYAMGWYRKAPGKEREFVASINWITGNTYYADSVKGRFTISRDNAKNTVYLQMNSLKPEDTAVYYCATVDWSLYLGTPPSYYWGQGTQVTVSS,low polyreactivity
14,QVQLVESGGGLVQAGGSLRISCAASGITFAWYAMGWYRQAPGKERELVATISAGGAITYYADSVKGRFTISRDNAKNTVYLQMNSLKPEDTAVYYCNAVTYGPYGWGQGTQVTVSS,high polyreactivity
15,QVQLVESGGGLVQAGGSLRISCAASGITFPVYTMGWYRQAPGKERELVAAITSSGGSTYYADSVKGRFTISRDNAKNTVYLQMNSLKPEDTAVYYCAARDYGRHHTYGYWGQGTQVTVSS,high polyreactivity
16,QVQLVESGGGLVQAGGSLRISCAASGITFVPNAMGWYRQAPGKERELVAAITGNGGRTYYADSVKGRFTISRDNAKNTVYLQMNSLKPEDTAVYYCNARKLYWAYTLRKYDYWGQGTQVTVSS,high polyreactivity
17,QVQLVESGGGLVQAGGSLRISCAASGITLINDAMGWYRQAPGKERELVAAITYRGVSTYYADSVKGRFTISRDNAKNTVYLQMKSLKPEDTAVYYCAAGYYWQYTSSSAQYSYDYWGQGTQVTVSS,low polyreactivity
18,QVQLVESGGGLVQAGGSLRISCAASGLIFAIYAMGWYRQAPGKERELVAAIRWSGASTYADSVKGRFTISRDNAKNTVYLQMNSLKAEDTAVYYCAADDLLDYDNWGQGTQVTVSS,low polyreactivity
19,QVQLVESGGGLVQAGGSLRISCAASGLIFYGYVMGWYRQAPGKEREFVAAITLSGGRTYYADSVKGRFTISRDNAKNTVYLQMNSLKPEDTAVYYCAARGPFRPYGAVGRQYDYWGQGTQVTVSS,high polyreactivity
20,QVQLVESGGGLVQAGGSLRISCAASGLTFADNAMGWYRQAPGKERELVAAISRSGSRTYYADSVKGRFTISRDNAKNTVYLQMNSLKPEDTAVYYCNAVWWYYRVFDYWGQCTQVTVSS,high polyreactivity
21,QVQLVESGGGLVQAGGSLRISCAASGLTFTDYAIGWYRQAPGKERELVAGIWDGGSTYYADSVKGRFTISRDNAKNTVYLQMNSLKAEDTAVYSCAVRTSRLLREFGYSYWGQGTQVTVSS,high polyreactivity

# Source: the nanobody polyreactivity screen of Harvey et al. (2022)
